Measurements as given in the nanobody polyreactivity screen of Harvey et al. (2022).

experiment: yeast display, Sf9 membrane polyspecificity reagent, FACS + sequencing; frameworks hold sequencing errors
In short: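 Using colony PCR, genes from sorted yeast display clones were amplified, then sequenced on MiSeq at 2 × 250 and filtered by CDR length. The clones had been stained with 10% biotinylated, detergent-solubilized Sf9 membrane reagent for 1 hour at 4 °C and sorted by FACS into low and high (top ~1%) gates on anti-HA and streptavidin fluorescence. Polyreactivity labels come from the gate of origin.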

| Sequence | polyreactivity (PSR sort gate) |
| --- | --- |
| QVQLVESGGGLVQAGGSLRLSCAASGSIFIYNAMGWYRQAPGKERELVAAINWTGGSTYYADSVKGRFTISRDNAKNTVYLQMNSMKPEDTAVYYCNALRYGSTRGYDYWGQGSQVTVSS | high polyreactivity |
| QVQLVESGGGLVQAGGSLRLSCAASGSTFIPYAMGWYRQAPGKERELVARITWSDTSTYYADSVKGRFTISRDNAKNTVYLHMNSVKPEDTAVYYCAAKEFSLARGARPRYYYWGQGTQVTVSS | high polyreactivity |
| QVQLVESGGGLVQAGGSLRLSCAASGRTFRLYAMGWYRQAPGKERELVADITTGGGSTYYADSVKGRFTISRDNAKNTVYLQMNSLKPEDTAVYYCAAEQDTVWFLWIVDYWGQGTQVTVSS | low polyreactivity |
| QVQLVESGGGLVQAGGSLRLSCAASGRTFSYYARGWYRQAPGKEREFVAAISSSGGSTNYADSVKGRFTISRDNAKNTVYLQMNSLKPEDTAVYYCNAGSGYTGVYLWYYWRYDYWGQGTQVTVSS | low polyreactivity |
| QVQLVESGGGLVQAGGSLRLSCAASGSIYARNAMGWYRQAPGKERELVAAIRYSGGSTYYADSVKGRFTISRDNAKNTVYLQMNSLKPEDTAVYYCAARWGVFGYYYWGQGTQVTVSS | high polyreactivity |
| QVQLVESGGGLVQAGGSLRLSCAASGFTFPWYAMGWYSQAPGKERELVAAITSGGGSTYYADSVKGRFTISRDYAKNTVYLQMNSLKPEDTAVYYCAAVPALKWYGYEYWGQGTQVTVSS | high polyreactivity |
| QVQLVESGGGLVQAGGSLRLSCAASGSIFWRYAMGWYRQAPGKERELVAAIDVSGATTYYADSVKGRFTISRDNAKNTVYLQMNSLKPEDTAVYYCATYATNSVAAYDYWGQGTQVTVSS | low polyreactivity |
| QVQLVESGGGLVQAGGSLRLSCAASGRIFYSYAMGWYRQAPGKERELVAAISWSGGRTYYADSVKGRFTISRDNAKNNVYLQMNSLKPEDTAVYYCARRGYYYDYWGQGTQVTVSS | high polyreactivity |
| QVPLVESGGGLVQAGGSLRLSCAASGRIFIQNTMGWDSQAPGKERELVAAINRSAGSTYYADSVKGRFTISRDNAKNTVYLQMNSLKTEDTAVYYCAAYASRRYGYWGQVTQVTVSS | high polyreactivity |
| QVQLVESGGGVDQAGGSLRLSGAASGSTFHSYTMGWYRQAPGKERELVAAITRSGGSTYYADSGKGRFTISRETAKNTVYLQMNSQKPEDTAVYYCAVPYCRNSRLVDLAYHFYYWGQGTQVTVSS | high polyreactivity |
| QVQLVESGGGLVQAGGSLRLSCAASGFTFGFYAMGWYRQGPGKERELVAASTRSGGTTYYADSVKGRFTISRDNAKNTVYLQMNSLKPEDTAVYYCAADYTKYYRRYYYWGQGTQVTVSS | high polyreactivity |
| QVQLVESGGGLVQAGGSLRLSCAASGYTFYFYAMGWYRQAPGKEREFVAAIRSSGGRTYYADSVKGRFTISRDNAKNTVYLQMNSLKPEDTAVYYCAAAGYYYSVDGAGPRYDYWGQGTQVTVSS | low polyreactivity |
| QVQLVESGGGLVQAGGSLRLSCAASGFTIHGNAMGWYRPAPGKERELVAGISSSGASTYYADSVKGRFTISRDNAKNTVFLQMNSLKPEDTAVYYCAVRYYGRYLRYNYWGQGTQVTVSS | high polyreactivity |
| QVQLVESGGGIVQAGGSLRLSCAASGSTFTWYAMGLYRQAPGKERELVADISYGGGSTYYADSVKGRFTISRDNSKNTVYLQMNSLKPEDTAVYYCTALGAKGYVKGFDYWGQGTQVTVSS | low polyreactivity |
| QVQLVESGGGLVQAGGSLLLSCAASGRTLGKYAMGWYRQAPGKERELVAAISSGGGSTYYSDSVKGRFTISRDNAKNTVYLLMNSLKPEDTAVYYCAADSVSRYNGYDYWGQGTQVTVSS | high polyreactivity |
| QVQLVESGGGLVQAGGSLRLSCAASGSIFSRYAMGWYRQAPGKERELVADITTRGGRTYYADSVKGRFTISRDNAKNTVYLQMNSLKPEDTAVYYCATLHSYRYRGGGDYWGQGTQVTVSS | high polyreactivity |
| QVQLVESGGGLVQAGGSLRLSCAASGFTFGVNAMGWYRQAPGKERELVAAISRSGGSTYYADSVKGRFTISRDNAKNTVYLEMNSLKPEDTAVYYCNKAYHRRDSEFGYWGQGTQVTVSS | high polyreactivity |
| QVQLVESGGGLVQAGGSLRLSCAASGRIFSDYVMGWYRQAPGKERELVADITGGGSTYYADSVKGRFTISRDNAKNTVYLQMNSLKPEDTAVYYCAARVYSYWDRSQRYYYCGQGTQVTVSS | high polyreactivity |
| QVQLVESGVCIVQAGGSLRLRCASSGSSLLNNAMGWYRQAPGKERELVAAITWSGGDTYYADSVKGRFTISRDNAKNTVYLQMNCLLQEDTAVYDCAADRYQWLTAYTDDLDHDYWGQGTQVTVSS | high polyreactivity |
| QVQLVESGGGLVQAGGSLRLSCAASGSIFNANAMGWYRQAPGKERELVARITRGGRTNYADSVKGRFTISLDNAKNSVYLQMNSLKPEDTAVYYCAAVYYVGFPHKYDYWGQGTQVTVSS | low polyreactivity |
| QVQLVESGGGLVQAGGSLRLSCAASGSTFYENAMGWYRQAPGKERELVAAITWSGGRTYYADSVKGRFTISRDNAKNTVYLQMNSLKPEDTAVYYCNARARSRKFYYWGQGTQVTVSS | high polyreactivity |
| QVQLVESGGGLVQAGGSLRLSCAASGRTFYYAMGWYRQAPGKERELVAAISKNGGRTYYADSVKGRFTISRDNAKNTVYLQMNSLKPEDTAVYYCAAAFQRPHSYLYYYWGQGTQVTVSS | high polyreactivity |

| Sequence | polyreactivity (PSR sort gate) |
| --- | --- |
| QVQLVESGGGLVQAGGSLRLSCAASGSIFNSYAMGWYIQAPGKERELFADITSSGGSTYYADSVKGRFTISRDNAKNTVYLQMNCLKPEDTAVYYCAASSPAFYGLRYNYWGQGTQVTVSS | low polyreactivity |
| QVQLVESGRGLVQAGGSLRLSCAASGSTFSRYTMGWYRQAPGKERELVAAISYRGGSTYYADSVKGRFTISRDNAKNTVYLQMNSLKPEDTAVYYRAAEYRVEGSDYDYWGQGTQVTVSS | low polyreactivity |
| QVQLVESGGGLVQAGGSLRLSCAASGITFARYTMGWYRQAPGKERELVAAITWSGGRTYYADSVKGRFTISRDNAKNTVYLQMNSLKPEDTAVYYCNVDLGRYGTSSGASVGYGDYDYWGQGTQVTVSS | high polyreactivity |
| QVQIVESGGGLVQAGGSLRLSCAASGTTFRFYAMGWYRQAPGKERELVAAIRRGGSTYYADSVKGRFTISRDNAKNTVYLQMNSLKPEDTAVYFCAAEPGYYSRPDYRVYRLYYWGLGTQVTVSS | high polyreactivity |
| QVQLVESGGGLVQAGGSLRLSCAASGSTFPYNTMGWYRQAHGKEREFVAAITGDGGTTYYADSVKGRFTISRDNAKNTVYLQMNSLKPEDTAVYYCAVPYPAEGYGGDYWGQGTQGTVSS | low polyreactivity |
| QVQLVESGGGLVQAGGSLRLSCAASGAMGWYRQAPGKERELVAAITQSGGSTRYADSVKGRFTISRDNAKNTVYLQMNSLKPEDTAVYYCKAEDPREWDPYYQDGFDFWGQGTQVTVSS | low polyreactivity |
| QVQLVESGGGLVQSGGSLRLSCAASGSTLTFNAMGWYRQAPGKERELVAAISWSDTDTYYADSVKGRFTISRDNAKNTVYLQMNSLKPEDTAVYYCAATLSAYEMDYWGQGTQVTVSS | low polyreactivity |
| QVQLVESGGGLVQAGGSLRLSCAASGSTFSTNVMGWSRQAPGKERELVAAISTIGGSTYADSVKGRFTISRDNAKNSVYLQMNSLKPEDTAVYDCAATRRWYPTKLYGYWGQGTQVTVSS | high polyreactivity |
| QVQLVESRGGLVQAGGSLRLSCAPSGIIFVRYAMGWYRQAPGKETELVAAISSSGGSTYYADSVKGRFTISRDNAKKTVYLQMNSLKPEDTAVYYCNARHRQWARGYWGQGTQVTVSS | high polyreactivity |
| QVQLVESRGGLVQAGGSLRLSCAASGRTFYSYAMGWSRQAPGKERELVAAITSSGGSTYYADSVKGRFTISRDNAKNTVYLQMNSLKPEDTAVYYCAAGKPYSSYWSWGYWTNLEDDYWGQGTQVTVSS | high polyreactivity |
| QVQLVYSGGGLVQAGGSLRLSCAASGLILWPYTMGWYRQSPWKERELVAAISSSGGSTYYADSVKGRFTISRDNAKNTVYLQMNSLKPEDTAVYYCAAVCWVISGKNGAGSMDYWGLGTQVTVSS | high polyreactivity |
| QVQLVESGGGLVQAGGSLRLSCAASGITFARYAMGWYRQAPGKERELVAAITRSGGSTNYADSVKGRFTISRDNAKNTVYLQMNSLKPEDTAVYYCAAAGYRFRFVYSRYEYWGQGTQVTVSS | high polyreactivity |
| QVQLVESGGGLVQAGGSLRLSCAASGRTFGQNTMGWYRQAPGIERELVAAINWSGGSTYYADSVKGRFTISRDIAKNTVYVQMNSLKPEDTAVYYCAVRGYWGQGTQVTVSS | low polyreactivity |
| QVQLVESGGGLVQAGGSLRLSCAASGSNFYFYAMGWYRHAPGKERELVAGITSGGITYYADSVKGRFTISRDNAKNTVYLQLNSLKPEDTAVYYCAADFTRRWSKSTPFDSWGQGTQVTVSS | high polyreactivity |
| QVQLQQSVGGLVQAGGSLRLSCAASGNIFPTDRMGWYRQAPGKELEFVATISHGGRTNYADSVKGRFTISRDNATNTVYLQMNRLKPEDTAVYFCAVWSLGRWRHYYWGQGSQVTVSS | low polyreactivity |
| QVQLVESGGGLVQAGGSLRLSCAASGNTFVTYTMGWYRQAPGKERELVADISSGGSTYYADSVKGRFTISRDNAKNTVYLQINSLKPEDTAVYYCAVQQAVFRSYYIYHRYYWGQGTQVTVSS | high polyreactivity |
| QVQLVESGGGLVQAGGSLRLSCAASGFTFSHYAMGWYRQAPGKEREVVADISRRGGRTYYADSVKGRFTISRDNAKNTVSLQMNSLKPEDTAVYYCAAPDESYSVWRLDGLDYWGQGTQVTVSS | high polyreactivity |
| QVHLEESGGGLVQAGGSLRLSCAASGFTFHNNVMGWYRQAPGKERELVATISKSGGSTYYADSVKGRFTISRDNAKNPVYLQMKSLKPEDTAVYYSARRYRDYRRYAYWGQGTQVTVSS | high polyreactivity |
| QVQLVESGGGLVQAGGSLRLSCAASGLTFQWNAMGWYRQAPGKERELVAGITDIGDSTYYADSVKGRFTISRDNAKNTVYFQMNSLKPEDTAVYYCNATSGYKHAWRSENGYWGQGTQVTVSS | low polyreactivity |
| QVQLVESGGGLVQAGGSLRLSCAASGSIFSDYAMGWYRQAPGKERELVAASTQSGGSTYADSLKGRFSISRDNAKNTVYLQMNSLKPEDTAVYYCADRHDKRRQYYVGQSAFDYWGQGTQVTVSS | low polyreactivity |
| QVQLVESGGGLVQAGGSLRLSCAASGGTFSPYAMGWYRQAPGKERELVAAIRYSGDRTYYADSVKGRFTISRDNAKNTVYLQMNSLKPEDTAVYYCAGPYYNTGYRYGYWGQGTQVTVSS | high polyreactivity |
